In the nanobody polyreactivity screen of Harvey et al. (2022):

Test: yeast display, Sf9 membrane polyspecificity reagent, FACS + sequencing; frameworks hold sequencing errors
Method in brief: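 Sorting gates, low and high (top ~1%), were placed on anti-HA fluorescence to track expression and on streptavidin fluorescence to track reagent binding. A clone's polyreactivity label is taken from the gate it came out of. The reagent was 10% biotinylated, detergent-solubilized Sf9 membrane, applied for 1 hour at 4 °C to galactose-induced yeast display cells.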

Sequence	polyreactivity (PSR sort gate)
QVQLVESGGGLVQAGGSLRLSCAASGYTFGSNTMGWYRQAPGKERELVAVITWSGGSTYYADSVKGRFTISRDNAKNTVYLQMNSLKPEDTAVYYCAADATSPLTWFDYWGQGTQVTVSS	low polyreactivity
QVQLVESGGGLVQAGGSLRLSCAASGYTFGSYAMGWYRQAPGKERELVAAISGGGSTNYADSVKGRFTISRDNAKNTVYLQMNSLKPEDTAVYYCAADIRWGQGTQVTVSS	low polyreactivity
QVQLVESGGGLVQAGGSLRLSCAASGYTFGTYAMGWYRQAPGKERELVAAITTNVGSTYYADSVKGRFTISRDNAKNTVYLQMNSLKPEDTAVYYCAADVGWRFGDITYWAYDYWGQGTQVTVSS	low polyreactivity
QVQLVESGGGLVQAGGSLRLSCAASGYTFGTYDMGWYRQAPGNERELGAAISLGGSTNYADSVKGPFTISRDNAKNTVYLQMYSLKPEDTAVYYCAAEVNVGTLLLSVIVEDGDYWGQGTQVTVSS	low polyreactivity
QVQLVESGGGLVQAGGSLRLSCAASGYTFGYNAMGWYRQAPGKERELVAAISWNAGSTYYADSVKGRFTISRDNAKNTVYLQMNSLKPEDTAVYYCATEGTYIYNYWGQGTQVTVSS	low polyreactivity
QVQLVESGGGLVQAGGSLRLSCAASGYTFGYNAMGWYRQAPGKERELVANITWRGGSTNYADSVKGRFTISRDNAKNTVYLQMNSLKPEDTAVYYCAADRPWYYGRYYYWGQGTQVTVSS	high polyreactivity
QVQLVESGGGLVQAGGSLRLSCAASGYTFGYYAMGWYRQAPGKERELVAAINYSGGRTYYADSVKGRFTISRDNAKNTVYLQMNSLKPEDTAVYYCNAKYGGWSKYWFPRDMDYWGQGTQVTVSS	low polyreactivity
QVQLVESGGGLVQAGGSLRLSCAASGYTFIHNAMGWYRQAPGKERELVAAINRSGGITNYADSVKGRFTISRDNAKNTVYLQMNSLKPEDTAVYYCNADVDPLPPRYLHREVLKEYNYWGQGTQVTVSS	low polyreactivity
QVQLVESGGGLVQAGGSLRLSCAASGYTFKTNDMGWYRPAPGKEREFVAAISAIGGSTYYADSVKGRFTISRDNAKNTVYLQMNSLKPEDTAVYYCAKDKSPYGYATNQYRKYYYWGQGTQVTVSS	low polyreactivity
QVQLVESGGGLVQAGGSLRLSCAASGYTFLGYAMGWYRQAPGKERELVAAIRRSGGRPYYADSVKGRFTISRDNAKNTVYLQINRLKPEDTAVYYCAQGYVGEYDYWGQGTQVTVTS	high polyreactivity
QVQLVESGGGLVQAGGSLRLSCAASGYTFLYYAMGWYRQAPGKEREFVAAISRSGGSTYYADSVKGRFTISRDNAKNTVYLQMISLKPEDTAVYYCAARFRYQHQRGDYWGQGTQVTVSS	high polyreactivity
QVQLVESGGGLVQAGGSLRLSCAASGYTFLYYAMGWYRQAPGKEREFVAAISRSGGSTYYADSVKGRFTISRDNAKNTVYLQMNSLKPEDTAVYYCAKDHPSGRQYDYWGQGTQVTVSS	high polyreactivity
QVQLVESGGGLVQAGGSLRLSCAASGYTFPDYAMGWYRQATGKERELVAAIRSGGGTNYADSVKGRFTISRDNAKNTVYLQMNSLKPEDTAVYYCAKEWAGGLYDYWGQGTQVTVSS	low polyreactivity
QVQLVESGGGLVQAGGSLRLSCAASGYTFPFYTMGWYRQAPGKERELVAAINSGGSTYYADSVKGRFTISRDNAKNTVYLQMNSLKPEDNAVYYCAVEGGFRVRYQAQYRYYYCGQGTQVTVSS	high polyreactivity
QVQLVESGGGLVQAGGSLRLSCAASGYTFPRYAMGWYRQAPGKERELVAAITWSGGSTYYADSVKGRFTISRDNAKNTVYLQMNSLKPEDTAVYYCNTDRYHRVDFDYWGQGTQVTVSS	high polyreactivity
QVQLVESGGGLVQAGGSLRLSCAASGYTFPSNAMGWYRQAPGKERELVAAISSGGRTNYADSVKGRFTISRDNAKNTVYLQMNSLTPEDTAVYYCNADGGPGYPRAYDYWGQGTQVTGSS	low polyreactivity
QVQLVESGGGLVQAGGSLRLSCAASGYTFQTNTMGWYRQAPGKERELVAAITDGDSTNYADSVKGRFTISRDNAKNTVYLQMNSLKPEDTAVYYCAAQYYYSEAGMDYWGQGTQVTVSS	low polyreactivity
QVQLVESGGGLVQAGGSLRLSCAASGYTFRIYAMGWYRLAPGKERELVAGISSRGTSTYYADSVKGRFTISRDNAKNTVYLQMNSLKPEDTAVYYCAAGRYGRLYGYWGQGTQVTVSS	high polyreactivity
QVQLVESGGGLVQAGGSLRLSCAASGYTFRYYAMGWYRQAPGKERELVAAITGSGGSTYYADSVKGRFTISRDNAKNTVYLQMNSLKPEDTAVYYCNTVTTSYKRSGKFDYWGQGTQVTVSS	high polyreactivity
QVQLVESGGGLVQAGGSLRLSCAASGYTFRYYAMGWYRQAPGKERELVARITGRAGSTYYADSVKGRFTISRDNAKNTVYLQMNSLKPEDTAVYYCAAQPAHPRRYDYWGQGTQVTVSS	high polyreactivity
QVQLVESGGGLVQAGGSLRLSCAASGYTFSDNAMGWYRQAPGKERELVAAITSGVSTYYADSVKGRFTISRDNAKNTVYLQMNSQKPEDTAVYYCAKEVAVFADLYQGAPYGYWGQGTQVTVSS	low polyreactivity
QVQLVESGGGLVQAGGSLRLSCAASGYTFSDYAMGWYRQAPGKERELVAAISWSGGSTYYADSVKGRFTISRDNAKNTVYLQMNSLKPEDTAVYYCAAKWYAPDLLYYYWGQGTQVTVSS	low polyreactivity

Sequence	polyreactivity (PSR sort gate)
QVQLVESGGGLVQAGGSLRLSCAASGYTFSHYAMGWYRQAPGTERELVAGITWSGGSTYYADSVKGRFTISRDNAKNTVYLQMNSLKPEDTSVYYCAAKYYWYYSYSGIPLFDYWGQGTQVTVSS	low polyreactivity
QVQLVESGGGLVQAGGSLRLSCAASGYTFSHYPMGWYRQAPGKERELVAGITWSGGSTYYADSVKGRFTISRDNAKNTVYLQMNSLKPEDTSVYYCAGKYYWYYSYSGIPLFDYWGQGTQVTVSS	low polyreactivity
QVQLVESGGGLVQAGGSLRLSCAASGYTFSLNAMGWYRQAPGKERELVAAISGRTGRTYYADSVKGRFTISRDNAKNTVYLQMNSLKPEDTAVYYGNKVYPYQRRTRFDYWGQGTQVTVSS	high polyreactivity
QVQLVESGGGLVQAGGSLRLSCAASGYTFSPNDMGWYRQAPGKERELVAAITSSVGSTYYADSVKGRFTISRDNAKNTVYLQLNSLKPEDTAVYYCNKQDSSYYISGGGDYDYWGQGTQVTVSS	low polyreactivity
QVQLVESGGGLVQAGGSLRLSCAASGYTFTGYALGWYRQAPGKERELVAAITSIGGSTYYADSVKGRFTISRDNAKNTVYLQMNSLKPEDTAVYYCAAEGDYVYDMDYWGQGTQVTVSS	low polyreactivity
QVQLVESGGGLVQAGGSLRLSCAASGYTFTHYAMGWYRQAPGKERELVAGITWSGGSTYYADSVKGRLTISRDNAKNTVYLQMNSLKPEDTSVYYCAAKYYWYYSYSGIPLFDYWGQGTQVTVSS	low polyreactivity
QVQLVESGGGLVQAGGSLRLSCAASGYTFTLYAMGWYRQAPGKEREFVAAISIGGDSTYYADSVKGRFTISRDNAKNTVYLQMNSLKPEDTAVYYCAADTYQRWILLIGELQVETSYDYWGQGTQVTVSS	low polyreactivity
QVQLVESGGGLVQAGGSLRLSCAASGYTFVIYAMGWYRQAPGKERELVAAITTIGGRTYYADSVKGRFTISRDNAKNTVYLQMNSLKPEDTAVYYCAADIRSYRLYDGGYWGQGTQVTVSS	low polyreactivity
QVQLVESGGGLVQAGGSLRLSCAASGYTFVVYAMGWYRQAPGKERELVAGITRGSSTYYADSVKGRFTISRDNAKNTVYLQMNSLKPEDTAVYYCARGYTWFYAVWPEYDYWGQGTQVTVSS	high polyreactivity
QVQLVESGGGLVQAGGSLRLSCAASGYTFVYYAMGWYRQAPGKERELVAAITSGGRTNYADSVKGRFTISRDNAKNTVYLQMNSLKPEDTAVYYCARLDYRSVRYGLRGQGTQVTVSS	low polyreactivity
QVQLVESGGGLVQAGGSLRLSCAASGYTFWDNAMGWYRQAPGKERELVAAITIRSGRTYYADSVKGRFTISRDNAKNTVYLQMNSLKPEDTAVYYCNAQIYTYRTGRGYSRMDYWGKGTQVTVSS	high polyreactivity
QVQLVESGGGLVQAGGSLRLSCAASGYTFWDYALGCYRQAPGKERAFVAGISFSDGGTYYADSVKGRFTISRDNAKNTVYLQMNSLKPEDTAVYYCAATYPYSWVYSGYYYWGQGTQVTVSS	low polyreactivity
QVQLVESGGGLVQAGGSLRLSCAASGYTFWLYAMGWYRQAPGKERELVATISRRAGTTYYADSVKGRFTISRDNAKNTVYLQMNSLKPEDTAVYYCNTDGYPRLYIYDYWGQGTQVTVSS	low polyreactivity
QVQLVESGGGLVQAGGSLRLSCAASGYTFWWYAMGWYRQAPGKEREFVAAIRFSGGTGTYYADSVKGRFTISRDNAKNTVYLQMNSLKPEDTAVYYCAADIAFRQWQVGDFDYWGQGTQVTVSS	low polyreactivity
QVQLVESGGGLVQAGGSLRLSCAASGYTFWWYAMGWYRQAPGKEREFVAAIRFSGGTRTYYADSVKGRFTISRENAKYTVFLQMNSLKPDDTAVYYCAADIAFRQWQVGDFDYWGQGTQVTVSS	low polyreactivity
QVQLVESGGGLVQAGGSLRLSCAASGYTFWYYTMGWYRQATGKERELVATISSNGRRTYYADSVKGRFTISRDNAKNTVYLQMNSLYPEDTAVYYCAAVLYRSWVYTTHDYWGHGTQVTVSS	high polyreactivity
QVQLVESGGGLVQAGGSLRLSCAASGYTFYANAMGWYRQAPGKEREFVASITWSGGSTYYADSVKGRFTISRDNAKNTVYLQMNSLKTEDTAVYYCAAESWFKYDYWGQGTQVTVSS	low polyreactivity
QVQLVESGGGLVQAGGSLRLSCAASGYTFYAYAMGWYRQAPGKERELVAAISGSGGNTRYADSVKGRFTISRDNAKNTVYLQMNSLKPEDTAVYYCAAVGWAYNSRYDYWGQGTQVTVSS	high polyreactivity
QVQLVESGGGLVQAGGSLRLSCAASGYTFYGYAMGWYRQAPGKERELVAAISWSGTNTNYADSVKGRFTISRDNAKNTVYLQMNSLKPEDTAVYYCAAGYYYRGFHTEDYWGQGTQVTVSS	high polyreactivity
QVQLVESGGGLVQAGGSLRLSCAASGYTFYPYAMGWYRQAPGKERELVAAITTSGGSTYYADSVKGRFTISRDNAKNTVYLQMNSLKPEDTAVYYCARDSLQVFYPYASDDYWGQGTQVTVSS	low polyreactivity
QVQLVESGGGLVQAGGSLRLSCAASGYTFYRYAMGWYRQAPGKERELVAGIDRSGTRTYYADSVKGRFTISRDNAKNTVYLQMNSLKPEDTAVYYCNAVAYYVSKYDYWGQGTQVTVSS	high polyreactivity
